Experimental data taken from publication PMC6117287.

Assays:
[1] = molecular target: Isatin hydrolase A from Labrenzia aggregata (Labrenzia aggregata IAM12614); experiment: crystal structure; LaIHA at 15-20 mg/mL with 1 mM MnCl2, crystallised at 22 °C; structures with benzyl benzoate (1.50 Å) and isatinate (1.79 Å); dimer in the asymmetric unit
purified protein = substrate: O=C1Nc2ccccc2C1=O; experiment: purified protein; assay type: biochemical, Roseibium aggregatum; conditions: Mn2+ dependent enzyme; one-site Michaelis-Menten fit

Molecule | stoichiometry N [1] | Km (purified protein)
Isatin hydrolase A from Labrenzia aggregata (enzyme) | 2 | –
LaIHA (Roseibium aggregatum IAM 12614) (protein) MSSLNQLVSGLASGAVRIVDLTHTLDPDFPVIVLPPEFGQCARFRMEEISAYDHRGPAWKWHNISMSEHTGTHFDAPSHWISGKDVPNGSVDEIPAEAFVGPVVVIDCSKGAAENDDFELTPEIIAGWESEHGRIPEDAWVLMRTDWSKRRGADYLNMRADGPHSPGPTPEAIRFLIEERNIRGFGTETVGTDAGQGAHYVPPYPAHYLLHGAGKYGLQCLANLDQLPATGAVLIAAPLKIKNGTGSPLRVLAMVTE | – | 16 µM
